Assay results published in the domain aggregation screens of Martell et al. (2025).

Assay: soluble fraction after stress (log2 fold change); higher = more stays soluble; pooled small domains, quantitative proteomics
Settings: stress: pH 4
Summary of the method: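 Following acid stress at pH 4, the amount of each small protein domain still soluble was measured in pooled custom libraries by high-throughput quantitative proteomics. Its fold change, on a log2 scale, is higher when more of the domain stayed soluble. This fold change is taken as a measure of aggregation propensity.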

Sequence	soluble fraction (log2)
HMDPERVVGQTGIVHLRIPARQHNTGKVMIEVQGSLREFDAVSEAEEIPTGTPILIVGRTEEGVFIAQPF	-0.823
HMASSVKAPLPGVILDIKVKVGDTIKNGDTVVILEAMKMENNIHSDKDGVVKSIEVNKGDSVLEGATLLTI	-0.822
HMKMPNGYGSVYKLSGNRRKPWAARVTDGWVNDTKTKKSKQKYKFIGFYETRKEALLALADYNANP	0.22
HMIGPYAAAKLMTNKDFVKWLSGGVEKSVFNPNSFGQHIRRLVQISEVNPDIRDEINAVVQGLTQ	-0.00821
HMIPKDKQAWIALTYIYGVGRTTSMEILKKAQVGEEIRMKDLTEEEVTRIRNIIDKEYEVEGDLRRN	-0.762
HMEQIFTELIMDGRVLGENLHRMGVDETWLLRQLRQQGYHSAREVFLAVADANKQVAVYPVS	-0.776
HMPSSIEGIEKYLGSGMIRGIGAVYAKRLVKQFGKDVFDIIEETPERLREVEGIGPIRAARIISGWADQ	-0.154
HMNPNYIKKLREKNQLTQEYLAAQIGVSRPTYAQIEQGQRGLTVTEAKKMADIFSLALDDFLAEKN	-0.442
HMTPDVAEFRERLRQILPGEQIEVRTANDGIVLSGTVSSIARLDAALQLAERYAPSRVSNLMSVG	0.399
HMQQLIEFSVTKGHPWINKKIMDLNLPENQLILTIQREGHVVSAEGKTIILENDRITISTDDR	-1.43
HMATEWLSSKEAAQRLGVSAATLYAYVSRGLLRSEGSSGQRERRYRADDVAQLRRRREVGRKAESIAASTL	0.142
HMELNGVSETAKSVYSIILNNSSTVDDIVIKTKLPAAKVMQALTELELNDAVERKSGGVYALP	-0.0324
HMRTKEGLASQLEKIPGIGPVKRKALLKKFGSIDAIAAASKEELMLTDGITSSLADAIRDYF	0.391
HMHMELHEKIRLARELNKWSQEEVAEKLEMSPSGYAKIERGETALNIPRLEQIAEIFNIDIWELVKA	-1.48
HMSQKVQEDFLGDIRKNEIAVTVFLINGVKLQGVITWFDDASILLRRDGHTQLIYKHAVSTIMPGVAVDI	-0.632
HMKTGNIIAVSLVWKGKYYMIRMFFPSAARPSRADVQTEIEKVYPGSKLSSFSVSDYEPGQPLLQV	-0.146
HMDPHEEELLRQLIRGDIAGYEVLFHKYYPTFFAFIKGMTKETVVAEDITQNIFMKVWLNRERLDAA	-0.535
HMTAEASELRERIRAAMATLPPAQQRVIELAYFEGLTQREIAALLNEPLGTIKTRMRLGMRKLKDVL	0.367
HMDVPTSSITEVKKSPMDVFAQARKAETGVYIFNREKIAGVMLTKEQYEALVEELNTLRDTL	-1.24
HMENPLETYYSQWVSAIKREHPEASFVKDTDGKYYVEGLTKNRLAVIYENPHLVRLVNATTNLHVE	0.14
HMEAGLRMPEQLTAFSALALLQKVRDSGPLTDAQKEQLDADVLRIEASHFGKADREALELEEILKQWLSRV	-0.889
HMAQVSDTGELEGVVDGVLAANAKSVADFQAGKENAFQYLIGQVMKETKGKANPEVVATLLRTKLS	0.121
HMGPTLTDEEEVVLNLLEKNHPVLLSELKENAGLSNKKWDKAIKGLSAHKLAKVTKTDDGLFVHLS	-0.167
HMQKADFDYGDYVDLGLAMGRQSRQLREAVGIKLGIGYANSKRFYQRLQTFGISLAELKQAVEEAENDQQN	0.149
HMVEVPEQLRDLLERSIEDLAELSVRSRNSLQKENIQTLGDLVQRTEEEMLGIENFGKKSLTEIAAFL	-0.92
HMARNHYETLGVGRTATGDEIRKAYRSEAQKHHPDRGGDAERMQSLNEARDTLLDDQARAAYDQELDL	-0.0435
HMGQVSEAGELEVAADRVIAANPEAVTKYKSGNENILQFLVGQMMKETKGAANPQVAAEILRKKIV	0.0296
HMITAEQENILFEKASDDISNNIINKGIWTKAYSQAGGDESKQKAIYIDLLVNYYKMLIKAGEEFEDI	-2.05

Sequence	soluble fraction (log2)
HMDDDIKNALDVLPEQYRMTVYYADVEGLAYKEIGAIMNTPIGTVMSRIHRGRSQLRVLLAAVAADR	-0.0958
HMTKAEVLLDLQQRIISEEFLPGSWLVERDLSSEYGLSRTPIREILNKLVILGLISVQKNRGYQVR	-0.792
HMKFYIHEIIGFNAVDKVAGIVGKVININEDSPQKKLVVNYNGKEVFIPLVDEIVRKIDKQKNEVLITMP	-0.174
HMGQKDYKTRLQEYFAKQGLKVNYEDTSHGPDHNKNFSTDVFLDGKIIGSGIGKSKKSSQQSAAKDALNIL	≥ 0.43
HMTESFEFTMNDLVQNNLIMGSGAKERRIAVGEALGIGYTNAKQFLSRLNHYGITRKEFDDEIEKVNQN	-0.217
HMDQNVSVPKLAGLQVEEANAILKSKGLHIEIIDSIYQKDAVPGAIIEQVPEENSKVKKGRAIYVSVYAK	0.0139
HMTTYSVDLGDIRAVADSDGKLVELTLHAAVTTHYSHSELADRLNLAFTALREEAQADYETRY	-0.0597
HMPAEGWEASGDTWRYRQKDGSYITNAWVQDTDGKWYYFDESSLMVRNQTTSDGYYVGEDGVWTET	-1.83
HMQPDDELVRLLLIKIFNDKQLKVNPAVINYLLRRIDRSFESINNFVKKIDEFSLEKGRKITVNLVSGFF	-1.43
HMFDITKEVLKQSGLYNLYKNDESLEGINRIQNIEELLNGIKDFVENNEKSQASVSSFLQDVALATDQ	-0.217
HMFESQYIGKIATAITDISAFSGRLKIYDENWEARTLGEDAPEIKKGAKVKIVRHDDLTMFVEKK	0.087
HMDIYLTAFKTTSNQVTLNGIARSDLIISEFMRDIRDAKLFGEPVLQVIQNKNLNNVQARVFELVVPL	-0.399
HMDLQNIQNQLNTEFAKSDTRIIFWFDDKGEYEDEVSELQLGDVKLHILDGLNWFYSKYLLNEA	-0.467
HMRNQIRAVITPVPNQERYTVEMTIDDDAGNLLTLQMAAPDRQQAAEFAQRFQKHPEALYHAVLSVLL	-0.191
HMRAAKSEDTRTRLIEGGMALFGQKGYNATGIKDITDAAGVPKGSFYNYFASKEDFGAEIIHSY	-0.0559
HMSPFAHHLHELRMRHGIRQNELAELIGYDQTYISALEVGLKGPPTPEFVDKLVEGLALSRTEEAALRSAA	-0.562
HMKFNLWLSEKLKKLGLTQRKLAEQAGVSPATVSRWLSGEFEPDLTNLRKINQVLGVPERELFLQLGL	-0.0282
HMAVELPLETTLDIVRKYARNQEVDRRAERVEAVSAEALQTLAPRGTKLASEIVEQAKTQVLEELA	-0.0679
HMDGVSLLFKLMETLPEQQKTILHLRDVEQLEFAEIAKITNTSQANVRVALSRARKKIKDLLLKQY	-1.31
HMNSNISYSEFLSQVEKGTINSVEITGNSIKGIYADGGEFITFSPGDPGLIDKLQRSDIEILATPPA	-0.593
HMQIMVVDEADRMLDMGFIPDIERIFQLTPFTRQTLFFSATMAPEIERITDTFLHSPERIEVAR	-1.14
HMKKNNTTPIPKTLNYVNIKGLSNEAVERLNKHKPSTLGQASRLEGITPAATSLISIAIKKNQLLEKAES	0.123
HMYIDANTALLAKRIQAKNGFLPLSDKSTAEEIYAEFGISKKAFKKALGALYKERLVRIGDEGVVWV	0.0176
HMKVTTGIDGLIGEEGVALSDFSGKGKIMVHGEIWNAEFSGEVKKGEVLLVEKANGMTLITRKKN	-0.401
HMNETRVDQAADLLLALLEKEPKSAAEILDEFEQAGFSKSGLYRAKDALGVVSIRKEGRWVWSLPHSLD	-0.778
HMYAGTWTTESGQWKYRQDDGTYAKGWLQDTDGRWYYFDANGRMLSNTATPDGYQVGEDGAWVNH	-0.651
HMEQEVLDLLFDAIRSLPEKYRRLFDMSFEQGLKNAEIAALLHVSESAVKKQKASMIQQLRDDLLRKTGKD	-0.564
